Results: PMC4858972, “Structural and Biochemical Characterization of the Early and Late Enzymes in the Lignin β-Aryl Ether Cleavage Pathway from Sphingobium sp. SYK-6” (The Journal of Biological Chemistry, 2016)

Legend:
purified protein [1] = substrate: COc1cc([C@H](O)[C@H](CO)Oc2ccccc2OC)ccc1O; test: purified protein; format: biochemical, Sphingobium sp. SYK-6; conditions: 5 mM NAD+, pH 9.0, 30 °C
purified protein [2] = substrate: COc1cc([C@H](O)[C@@H](CO)Oc2ccccc2OC)ccc1O; test: purified protein; format: biochemical, Sphingobium sp. SYK-6; conditions: 5 mM NAD+, pH 9.0, 30 °C

B1: LigL (Sphingobium sp. SYK-6) (protein)
chain: MDIAGTTAFITGGASGIGFGIAQRLLANGARLVLADIRQDHLDEARQFFEERQQGRNVHTIRLDVSDRAQMAEAARECEAVMGGPDILINNAGIDPSGPFKDATYQDWDYGLAINLMGPINGIMAFTPGMRARGRGGHIVNTASLAGLTPMPSFMAIYATAKAAVITLTETIRDSMAEDNIGVTVLMPGPIKSRIHESGQNRPERFRAGSGLAETEQQLAKRVVADNWMEPTEVGDMIVDAIVHNKLYVSTHGNWRETCEARFQALLDSMPEARPFDFGASLAVPKEEA
notes: synthetic gene in pCPD, C-terminal V. cholerae MARTX cysteine protease domain (CPD)-His tag self-cleaved after a Leu, expressed in E. coli (NEB Express), biological dimer
Q: With B1 as the protein, how does the Km (purified protein [1]) read?
A: 10.9 ± 0.8 µM

Q: What about the Vmax (purified protein [1]) of the same protein?
A: 33.7 µmol/min/mg

Q: What about the kcat (purified protein [1]) of the same protein?
A: 7.5 ± 0.1 s⁻¹

Q: What about the kcat/Km (purified protein [1]) of the same protein?
A: 688000 ± 53000 M⁻¹ s⁻¹

Q: And the Km (purified protein [2])?
A: 20.3 ± 3.2 µM

Q: What about the Vmax (purified protein [2]) of the same protein?
A: 21.8 µmol/min/mg

Q: What about the kcat (purified protein [2]) of the same protein?
A: 4.9 ± 0.3 s⁻¹

Q: And the kcat/Km (purified protein [2])?
A: 240000 ± 41000 M⁻¹ s⁻¹
